Molecular target: T1, human CCR5 chemokine receptor (Homo sapiens, UniProt P51681)
T1 construct: host or cells: Chinese Hamster Ovary (CHO) cells; membranes prepared from the cell pellet
Assay: CC-Chemokine Receptor-5 Binding by Scintillation Proximity Assay (CCR5 SPA), displacement of [125I]MIP1α
Conditions: standard compound, 14-point concentration-response curve in triplicate, starting concentration 1 μM
Experimental: CC-Chemokine Receptor-5 Binding by Scintillation Proximity Assay (CCR5 SPA) Scintillation Proximity Assay for the Human CC-Chemokine Receptor, CCR-5
This protocol describes a high-throughput screen using SPA binding to identify compounds that inhibit binding of ^125-MIP1α to the human CCR5 chemokine receptor.
Human CCR5 receptors were expressed in Chinese Hamster Ovary (CHO) cells, registration # 12025. Cells were grown in suspension and a 50 to 80 ml CCR5 cell pellet was prepared. […]
The saturation curve binding experiment is performed by adding varying amounts of [^125I]MIP1α (0-8.5 nM to membranes and beads in concentrations chosen from the optimal protein/bead ratio. The data is analyzed using a non-linear curve-fitting program. The Kd and Bmax are derived from the curve. […]

T1 sequence (P51681 whole entry): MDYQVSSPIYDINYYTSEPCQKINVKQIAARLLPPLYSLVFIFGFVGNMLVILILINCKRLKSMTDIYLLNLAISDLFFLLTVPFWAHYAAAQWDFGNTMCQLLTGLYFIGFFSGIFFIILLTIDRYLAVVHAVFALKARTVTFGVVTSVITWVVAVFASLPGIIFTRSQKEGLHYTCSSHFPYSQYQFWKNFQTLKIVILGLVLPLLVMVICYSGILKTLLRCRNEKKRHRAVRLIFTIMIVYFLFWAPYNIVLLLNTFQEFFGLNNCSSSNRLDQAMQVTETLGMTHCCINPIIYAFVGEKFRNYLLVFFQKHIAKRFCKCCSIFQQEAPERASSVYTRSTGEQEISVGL

- average historical pKi: 7.6
Substance: MIP1α: natural chemokine ligand of CCR5; standard compound of the CCR5 SPA binding assay
